Data published in article PMC10126545.

Biological target: COBRA P1 HA ectodomain, insect-cell expressed, Foldon and tags removed by thrombin
Test: SEC; Superdex 200 16/600 in 50 mM NaCl, 10 mM Tris pH 7.5, after thrombin digestion that removed the Foldon and tags

For “COBRA P1 HA ectodomain, insect-cell expressed, Foldon and tags removed by thrombin”, which stoichiometry N is on record?
Its stoichiometry N is 3.
